Test results as given in the nanobody polyreactivity screen of Harvey et al. (2022).

Test: yeast display, Sf9 membrane polyspecificity reagent, FACS + sequencing; frameworks hold sequencing errors
Procedure, shortened: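 Galactose-induced (36–48 hours) yeast carrying a synthetic nanobody display library were exposed to 10% biotinylated, detergent-solubilized Sf9 membrane reagent at 4 °C for 1 hour. FACS followed streptavidin microbead enrichment, using low and high (top ~1%) gates for expression (anti-HA) and reagent binding (streptavidin). Colony PCR, MiSeq 2 × 250 sequencing and CDR-length filtering followed. Labels for polyreactivity reflect the gate of origin.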

Row | Sequence | polyreactivity (PSR sort gate)
1 | QVQLVESGGGLVQAGGSLRLSCAASGRTFASYGMGWYRQAPGKHRELVASITRRGGSTYYADSVKGRFTISRDNAKNTVYLQMNSLKPEDTAVYYCAATRVRSASYSIEYDYWGQGTQVTVSS | high polyreactivity
2 | QQLQESGGGLVQAGGSLRLSCAASGSISGSVLMGWYRQAPGKEREFVASISLGGNTNYADSVKGRFTISRENAKNTVYLQMNSLKPEVAAVYYCAAYISLFETHPYWGQGTQVTVSS | high polyreactivity
3 | QVQLVESGGGLVQAGGSLRLSCAASGSTFYAYVMGWYRQAPGKERELVAAITSAGSTYYADSVKGRFTISRDNAKNTVYLQMNSLKPEDTAVYYCAAYYIVHSRQTQGFERYDYWGQGTQVTVSS | low polyreactivity
4 | QVQLVESGGGLVQAGGSLLLSCAASGSILSKNAMGWYRQAPGKDRELVAAITWSGGSTYYADSVKGRFTISRDNAKNTVYLQMNSLKPEDTADYSCAADLDWSPQFGLPYDYWGQGTQVTVSS | low polyreactivity
5 | QVQLVESGGGLVQAGGILRLICAASGSIFYYNAMGWSRQAPGKERELVAAITKSGTRTNYADSVKGRFTISRDNAKNTVYLQMNSLKPEDTAVYDCAAEDQYYRYVCAYEYWGQGTQVTVSS | high polyreactivity
6 | QVQLVESGGGLVQAGGSLRLSCAASGRNFGYYTMGWYRQAPGKERELVAAITSSGGRTYYADSVKGRFTISRDNAKNTVYLQMNSLIPEVTAVYYCNKVTYGYAYWRYDGYYYWGQGTQVTVSS | low polyreactivity
7 | QVQLVESRGGLVQAGGSLRLSCAASGSIFPYYAMGWYRQAPGKERELVAAISLSGVSTTYADSVKGRFTISRDNAKNTVYLQMNSLKPVDTAVYYCAAKSFWSRYVGGYYWGQGTQVTVSS | high polyreactivity
8 | QVQLVESGGGLVQAGGSLRLSCAASGSIFNRNAMGWYRQAPGKERELVAAITRRGGSTYYADSVKGRFTISRDNAKNTVYLQMNSLKPEDTAVYYCAAATRKTEYDYWGQGTQVTVSS | low polyreactivity
9 | QDQLVESGGGLVQAGGSLRLTCAASGITFYRYAMGWYRQAPGKERELVAAITSGGRTNYADSVKGRFTISRDNAKNTVYLQMNSMKPEDTAVYYCGARLVRESEPLGYWGQGTQVTVSS | high polyreactivity
10 | QVQLVESGGGLVQAGGSLRLSCAASGFTFGSNTMGWYRQAPGKERELVAAITTSGDSTYYADSVKGRFTISRDNAKNTVYLQMNSLKPEDTAVYYCAAERRYGRYYRLVRLLGQGTQVTVSS | high polyreactivity
11 | QVQLVESGGGLVQAGGSLRLSCAASGSIFDFYAMGWYRQAPGKERELVAAINSGGRTYADSVKGRFTISRDNAKNTVYLQMNSLKPEDTAVYYCAAEYQYLSVEVTDIWYLTKYDYWGQGTQVTVSS | low polyreactivity
12 | QVQLVESGGGLVQAGGSLRLSCAASGRTFYYYAMGWYRQAPGKERELVAAIRWSTGSTYYADSVKGRFTISRDNAKNTVYLQMNSLKPEDTAVYYCAADTWYIQWGYYWGQGTQVTVSS | low polyreactivity
13 | QVQLVESGGGLVQAGGSLRLSCAASGFIFAYYAMGWYRQEPGKERELVAAISSSGSTNYADSVKGRFTISRDNAKNTVYLQMNSLKPEDTAVYYCAADRVGGTPQAYVPSQFDYWGQGTQVTVSS | low polyreactivity
14 | QVQLQESGGGLVQAGGSLRLSCAASGTITVLYKMGWFRQAPGKEREFVASMNYGTSTYYADSVKGRFTVSRDSAKNTVYLQMNSLKPEDTAVYYCAAAYRWQDVYRYWGQGTQVTVSS | low polyreactivity
15 | QVQLVESGGGLVQAGGSLRLSCAASGSIFNRYTMGWYRQAPGKERELVAAISKRGGSTYYADSVKGRFTISRDNAKNTVYLQMNSLKPEDTAVYYCAAAAYHSGKGGGYWGQGTQVTVSS | high polyreactivity
16 | QVQLVESGGGLVQAGGSLRLSCAASGRIFEYYVMGWYRQAPGKERELVAAINRRGTSTYYADSVKGRFTISRDNAKNTVDLQMNSLKPEDTAVYYCAAVDRDYARTTTYDYCGQGTQVTVSS | high polyreactivity
17 | QVQLVESGGGLVQAGGSLRLICADSGRIFNRYAMGWYRQAPGKEREFVAGITWNGGSTYYADSVKGRFTISRDNSKNTVNLQMNSLKPEDTAVYYCAATHYYYGTSRYDYWGQGTQVTVSS | high polyreactivity
18 | QVQLVESGGGLVQAGGSLRLSCAASGSIFRYYAMGWYRQAPWKERELVADISSGGSTYYADSVKGRFTISRDNAKNTVNLQMISQKPEDTAVYYCNDDYYAYPWTNDYWGQGTQVTVTS | high polyreactivity
19 | QVQLVESGGGLVQAGGSLRLSCAASRLTFQDYAMGWYRQAPGKERELVAGISRSGGRTNYADSVKGRFTISRDNAKNTVYLQMNSLKPEDTAVYYCATPYRRLNTWIYDYWGQGTQVTVSS | high polyreactivity
20 | QVQLVESAGGLVQAGGSRRLSCAASGRNFPFYAMGWYRQAPGKERELVATISSGDRTNYAVSVKGRFTISRDNAKNTVYLQMNSLKPEDTAVYYCAADFAVKYRKRVRRYSWGHGTQVTVSS | low polyreactivity
21 | QVQLVESGGGLVQAGGSLRLSCAASGFTFDSYAMGWYRQAPRKERELVAAITSDGSTYYADSVKGRFTISRDNAKNNVYLQMNSLKAEDTAVYYCAADGISLYATAYDYWGQGTQVTVSS | low polyreactivity
22 | QVQLVESGGGLVQAGGSLRLSCAASGSIFLFNAMGWYRQAPGKERELVAAINRDDSTYYADSVKGRFTISRDNAKNTVYLQMNSLKPEDTAVYYCAARQRLSWKTEYYWGQGTQVTVSS | low polyreactivity

Row | Sequence | polyreactivity (PSR sort gate)
23 | QVQLVESGGGLVQAGGSLRLSCAASGSTFFRYAMGWYRQAPGKERELVAAITSGGNTYYADSVKGRFTISRDNAKNTVYLQMNSLKPEDSAVYYCAADVYHWIHEYDYWGQGTQVTVSS | low polyreactivity
24 | QVQLVESGGGLVQAGGSLRLSCAASGSISGLNAMGWYRQAPGKERELVAAISRSGGRTYYADSVKGRFTISRDNAKNTVYLQMNSLKPEDTAVYYCAAVTTWRMDYWGQGTQVTVSS | high polyreactivity
25 | QVQLVESGGCLVQAGGSLRLSCAASGSIFRYYNMGWYRQAPGKERELVAVINWSGGSTYYADSVKWRFTISRDNAKNTVYLQMNSLKPEDCAVYYCAICFWRTRRYGADPRTKYDYWGLGTQVTVSS | high polyreactivity
26 | QVQLVESGGGLVQAGGSLRLSCAASGLIFYENAMGWYRQAPGKERELVAAINYDGDSTYYADSVKGRFTISRDNAKNTVYLQMNSLKPEDTAVYYCAADGGWVLFWMDYWGQGTQVTVSS | low polyreactivity
27 | QVQLVESGGGLVQAGGSLRLSCAASGRTFTPYTMGWYRQAPGKEREFVAAITVRGGSTYYADSVKGRFTISRDNAKNTVYLQMNSLKPEDTAVYYCAASYVSYRKRDDYWGQGTQVTVSS | high polyreactivity
28 | QVQLVESGGGLVQSGGSLRLSCCACGRIFYSYSMGRYRQAPGKDRELVAANTCRGGSTYYADSVKGRFTISRDNAKNPVYLQMIRLKPEDTAVSYCATSSHTPYYSYIVERIHYDYWGQGTQVTVSS | high polyreactivity
29 | QVQLVESGGGLVQAGGSLRLSCAASGRIFDPYAMGGYRQAPGKERELVANITLRGGITYYADSVKGRFTISRDNAKNTVYLQMNSLKPEDTAVYDCNADGYPDVGAGTYGYWGQGTQVTVSS | low polyreactivity
30 | QVQLVESGGGLVQAGGSLRLSCAASGRIFQKNAMGWYRQAPGKERELVAAISSGGSTNYADSVKGRFTISRDNAKNTVYLQMNSLKPEDTAVYYCAVESVYEYGGYVDSAYDYWGQGTQVTVSS | low polyreactivity
31 | QVQLVESGGGLVQAGGSLRLSCAASGRIFRVNAMGRYRQAPGKERELVAAITRSGGSTYYADSVKGRFTISRDNAKNTVYLQRNSLKPEDTAVYYCNADPRLRQTRDYWGQGTQVTVSS | high polyreactivity
32 | QVQLVDSGGGLVQAGGSLRLSCAASGSIFAGYTMGGYRQAPGKEREFVAAISSSGGSTYYADSVKGRFTISRDNAKNTVYLQMNSLKPEDTAVSYCAVRGRISSVSRYGYWGQGTQVTVSS | high polyreactivity
33 | QVQLVESGGGLVQAGGSLRLSCAASGFILTSYAMGWYRPEPGKERELVAAISSRGGRTYYADSVKGRFTISRDNAKNTVYLQMNSLKPEDTAVYYCNAVVYVVGDFDYWGQGTQVTVSS | high polyreactivity
34 | QVQLVESGGGLVQAGGSLRLSCAASGSIFKVYAMGWYRQAPGTERELVAGITLNGGSTYYADSVKGRFTISRDNAKNNVYLQMNSLKPEDTAVYYCNAVYSYYYRWYYDFDYWGQGTQVTVSS | high polyreactivity
35 | QVQLVESGGGLVQAGGSLRLSCAASGRTFVLYAMGWYRQAPVKERELVASITWSGVSTTYADSVKGRFTISRDNAKNTVYLQMNSLKPEDTAVYYCAKDGLFEQGYPYQLGYWGQGTQVTVSS | low polyreactivity
36 | QVQLVESGGGLVQAGGRLRLSCAASGSTFFKYDMGWYRQAPGKERELVAVITWSGGTTFYADSVKGRFTISRDNAKNTVYLQMNSLKPEDTAVYYCAADYYGYRYDYWGQGTQVTVSS | low polyreactivity
37 | QVQLVESGGGLVQAGGSLRLSCAASGSIFTKYAMGWYRQAPGKEREFVAAITLSGGSTYYADSVKGRFTIGRDNAKNTVYLQMNSLKPEDTAVYYCNAAYTYVTAWYYYWGQGTQVTVSS | high polyreactivity
38 | QVQLVESGGGLVQAGGSLRLSCAASGRTYVPNAMGWYRQAPGKEREFVAAITSRGGRTFYADSVKGRFTISRDNAKNTVYLQMNSLKPDDTAVYYCAAYRPGFVYGRLDYWGQGTQVTVSS | high polyreactivity
39 | QVQLVESGGGLVQAGGSLRLSCAASGSTFAVYAMGWYRQAPGKERELVAVISRGANTNYADSVKGRFTISRDNAKNTVYLQMNSLKPEDTAVYYCAAVDGYDSHDTGEYYYWGQGTQVSVSS | low polyreactivity
40 | QVQLVESGGGLVQAGGSLRLSCAASGGNFLAYAMGWYRQAPGKERELVAAITRRGTRTYYADSVKGRFTISRDNAKNTVYLQMNSLKPEDTAVYYCAADYYPASAGFDYWGQGTQVTVSS | high polyreactivity
41 | QVQLVESGGGLVQAGGSLRLSCAASGRTFTVNAMGWYRPAPGKERELVAAISGRSGRTSYADSVKGRFTISRDNAKNNVYLQMNSLKPEDTAVYSCNASGGYSTGSRFEYWGQGTQVTVSS | high polyreactivity
42 | QVQLVESGGGLVQAGGSLRLICAASGRIFVGNTMGWYRQAPGKERELVAAITSSGGSTYYADSVKGRFTISRDNAKNTVYLQMNSLKPEDTAVYYCAARTREYQWRYYYWGQGTQVTVSS | high polyreactivity
43 | QVQLVESGGGLVQAGGSLRLSCAASGRTIRGYTMGWYRQAPGKERELVATITKRGGSTTYADSVKGRFTISRDNAKNTVYLQMNSLKPEDTAVYYCNKDTITSTWTPYTSWFGYWGQGTQVTVSS | high polyreactivity
